Measured values taken from article doi:10.1101/2023.11.15.567215 (bioRxiv, 2023).

Target: the molecule itself
Experiment: cross-linking

B1: Mtb LexA (LexA of Mycobacterium tuberculosis), wild type (natural protein)
chain: MNDSNDTSVAGGAAGADSRVLSADSALTERQRTILDVIRASVTSRGYPPSIREIGDAVGLTSTSSVAHQLRTLERKGYLRRDPNRPRAVNVRGADDAALPPVTEVAGSDALPEPTFVPVLGRIAAGGPILAEEAVEDVFPLPRELVGEGTLFLLKVIGDSMVEAAICDGDWVVVRQQNVADNGDIVAAMIDGEATVKTFKRAGGQVWLMPHNPAFDPIPGNDATVLGKVVTVIRKV
For B1, the “stoichiometry N” value was 2.
